{
  "source": "the supplement of paper PMC9112550",
  "about": "“Optimization of the antimicrobial peptide Bac7 by deep mutational scanning” (BMC Biology, 2022);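 also: peptides expressed intracellularly from a pBAD plasmid library in pooled LB shake-flask culture, induced with 0.3% L-arabinose, DNA abundance read by NGS, three biological replicates, DESeq2 with apeglm shrinkage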",
  "data": [
    {"system": "Escherichia coli TOP10", "experiment": "shrunken log2 fold change of peptide-encoding DNA abundance (4.5 h post-induction vs induction); higher = less antimicrobial activity (less host growth inhibition)", "conditions": "time post-induction: 4.5 h; library: site-saturation at positions 5, 18, 19, 20", "values": [
      {"sequence": "RRIRGRPPRLPRPRPRPMENPRP", "shrunken log2 fold change": 0.47},
      {"sequence": "RRIRGRPPRLPRPRPRPMERPRP", "shrunken log2 fold change": 1.36},
      {"sequence": "RRIRGRPPRLPRPRPRPMFMPRP", "shrunken log2 fold change": 0.0699},
      {"sequence": "RRIRGRPPRLPRPRPRPMGWPRP", "shrunken log2 fold change": 0.967},
      {"sequence": "RRIRGRPPRLPRPRPRPMHTPRP", "shrunken log2 fold change": 1.25},
      {"sequence": "RRIRGRPPRLPRPRPRPMLPPRP", "shrunken log2 fold change": 0.242},
      {"sequence": "RRIRGRPPRLPRPRPRPMLVPRP", "shrunken log2 fold change": 0.418},
      {"sequence": "RRIRGRPPRLPRPRPRPMNHPRP", "shrunken log2 fold change": 0.116},
      {"sequence": "RRIRGRPPRLPRPRPRPMNMPRP", "shrunken log2 fold change": -0.318},
      {"sequence": "RRIRGRPPRLPRPRPRPMQDPRP", "shrunken log2 fold change": 0.108},
      {"sequence": "RRIRGRPPRLPRPRPRPMQIPRP", "shrunken log2 fold change": 0.406},
      {"sequence": "RRIRGRPPRLPRPRPRPMQSPRP", "shrunken log2 fold change": 0.47},
      {"sequence": "RRIRGRPPRLPRPRPRPMRFPRP", "shrunken log2 fold change": 0.112},
      {"sequence": "RRIRGRPPRLPRPRPRPMSLPRP", "shrunken log2 fold change": -0.0288},
      {"sequence": "RRIRGRPPRLPRPRPRPMSTPRP", "shrunken log2 fold change": 0.44},
      {"sequence": "RRIRGRPPRLPRPRPRPMSVPRP", "shrunken log2 fold change": 0.0559},
      {"sequence": "RRIRGRPPRLPRPRPRPMVWPRP", "shrunken log2 fold change": 0.156},
      {"sequence": "RRIRGRPPRLPRPRPRPMWLPRP", "shrunken log2 fold change": 0.25},
      {"sequence": "RRIRGRPPRLPRPRPRPMWYPRP", "shrunken log2 fold change": 0.293},
      {"sequence": "RRIRGRPPRLPRPRPRPMYAPRP", "shrunken log2 fold change": 0.706},
      {"sequence": "RRIRGRPPRLPRPRPRPMYHPRP", "shrunken log2 fold change": -0.242},
      {"sequence": "RRIRGRPPRLPRPRPRPMYLPRP", "shrunken log2 fold change": 0.0702},
      {"sequence": "RRIRGRPPRLPRPRPRPNCGPRP", "shrunken log2 fold change": 0.0147},
      {"sequence": "RRIRGRPPRLPRPRPRPNCHPRP", "shrunken log2 fold change": 0.415},
      {"sequence": "RRIRGRPPRLPRPRPRPNCQPRP", "shrunken log2 fold change": 0.458},
      {"sequence": "RRIRGRPPRLPRPRPRPNEHPRP", "shrunken log2 fold change": 0.435},
      {"sequence": "RRIRGRPPRLPRPRPRPNFKPRP", "shrunken log2 fold change": 0.142},
      {"sequence": "RRIRGRPPRLPRPRPRPNHVPRP", "shrunken log2 fold change": 0.425},
      {"sequence": "RRIRGRPPRLPRPRPRPNIDPRP", "shrunken log2 fold change": 0.644},
      {"sequence": "RRIRGRPPRLPRPRPRPNISPRP", "shrunken log2 fold change": 0.231},
      {"sequence": "RRIRGRPPRLPRPRPRPNKRPRP", "shrunken log2 fold change": 0.26},
      {"sequence": "RRIRGRPPRLPRPRPRPNKTPRP", "shrunken log2 fold change": -0.0264},
      {"sequence": "RRIRGRPPRLPRPRPRPNKVPRP", "shrunken log2 fold change": 0.0962},
      {"sequence": "RRIRGRPPRLPRPRPRPNLDPRP", "shrunken log2 fold change": 0.265},
      {"sequence": "RRIRGRPPRLPRPRPRPNLEPRP", "shrunken log2 fold change": 0.678},
      {"sequence": "RRIRGRPPRLPRPRPRPNNVPRP", "shrunken log2 fold change": -0.131},
      {"sequence": "RRIRGRPPRLPRPRPRPNPDPRP", "shrunken log2 fold change": 0.221},
      {"sequence": "RRIRGRPPRLPRPRPRPNQAPRP", "shrunken log2 fold change": -0.0774},
      {"sequence": "RRIRGRPPRLPRPRPRPNQYPRP", "shrunken log2 fold change": -0.166},
      {"sequence": "RRIRGRPPRLPRPRPRPNSWPRP", "shrunken log2 fold change": 0.356},
      {"sequence": "RRIRGRPPRLPRPRPRPNTPPRP", "shrunken log2 fold change": 0.237},
      {"sequence": "RRIRGRPPRLPRPRPRPNYFPRP", "shrunken log2 fold change": 0.0394},
      {"sequence": "RRIRGRPPRLPRPRPRPPAFPRP", "shrunken log2 fold change": 1.09},
      {"sequence": "RRIRGRPPRLPRPRPRPPAGPRP", "shrunken log2 fold change": 1.37},
      {"sequence": "RRIRGRPPRLPRPRPRPPAKPRP", "shrunken log2 fold change": 1.48},
      {"sequence": "RRIRGRPPRLPRPRPRPPATPRP", "shrunken log2 fold change": 1.79},
      {"sequence": "RRIRGRPPRLPRPRPRPPCRPRP", "shrunken log2 fold change": 0.637},
      {"sequence": "RRIRGRPPRLPRPRPRPPCVPRP", "shrunken log2 fold change": 1.15},
      {"sequence": "RRIRGRPPRLPRPRPRPPDQPRP", "shrunken log2 fold change": 1.14},
      {"sequence": "RRIRGRPPRLPRPRPRPPEGPRP", "shrunken log2 fold change": 1.15},
      {"sequence": "RRIRGRPPRLPRPRPRPPELPRP", "shrunken log2 fold change": 1.18},
      {"sequence": "RRIRGRPPRLPRPRPRPPFNPRP", "shrunken log2 fold change": 1.66},
      {"sequence": "RRIRGRPPRLPRPRPRPPIDPRP", "shrunken log2 fold change": 0.888},
      {"sequence": "RRIRGRPPRLPRPRPRPPIHPRP", "shrunken log2 fold change": 0.108},
      {"sequence": "RRIRGRPPRLPRPRPRPPISPRP", "shrunken log2 fold change": 0.163},
      {"sequence": "RRIRGRPPRLPRPRPRPPKGPRP", "shrunken log2 fold change": 0.673},
      {"sequence": "RRIRGRPPRLPRPRPRPPLLPRP", "shrunken log2 fold change": 0.633},
      {"sequence": "RRIRGRPPRLPRPRPRPPMEPRP", "shrunken log2 fold change": -0.0178},
      {"sequence": "RRIRGRPPRLPRPRPRPPMYPRP", "shrunken log2 fold change": 0.145},
      {"sequence": "RRIRGRPPRLPRPRPRPPNMPRP", "shrunken log2 fold change": 0.0204},
      {"sequence": "RRIRGRPPRLPRPRPRPPNQPRP", "shrunken log2 fold change": 0.535},
      {"sequence": "RRIRGRPPRLPRPRPRPPTIPRP", "shrunken log2 fold change": 0.459},
      {"sequence": "RRIRGRPPRLPRPRPRPPVFPRP", "shrunken log2 fold change": 0.647},
      {"sequence": "RRIRGRPPRLPRPRPRPPWLPRP", "shrunken log2 fold change": 0.849},
      {"sequence": "RRIRGRPPRLPRPRPRPPYAPRP", "shrunken log2 fold change": 0.798},
      {"sequence": "RRIRGRPPRLPRPRPRPPYFPRP", "shrunken log2 fold change": 0.0555},
      {"sequence": "RRIRGRPPRLPRPRPRPPYGPRP", "shrunken log2 fold change": 0.341},
      {"sequence": "RRIRGRPPRLPRPRPRPPYSPRP", "shrunken log2 fold change": -0.084},
      {"sequence": "RRIRGRPPRLPRPRPRPQACPRP", "shrunken log2 fold change": 0.27},
      {"sequence": "RRIRGRPPRLPRPRPRPQAVPRP", "shrunken log2 fold change": 0.295},
      {"sequence": "RRIRGRPPRLPRPRPRPQCWPRP", "shrunken log2 fold change": 0.623},
      {"sequence": "RRIRGRPPRLPRPRPRPQDWPRP", "shrunken log2 fold change": 0.639},
      {"sequence": "RRIRGRPPRLPRPRPRPQERPRP", "shrunken log2 fold change": 0.595},
      {"sequence": "RRIRGRPPRLPRPRPRPQEWPRP", "shrunken log2 fold change": 0.12},
      {"sequence": "RRIRGRPPRLPRPRPRPQFEPRP", "shrunken log2 fold change": 0.156}
    ]}
  ]
}
